B1: minF1; a variant is named by its letters at N, in order (parent)
chain: GAGACCGCAACTGAAAAGTTGTTNNNNAANNNNGGNTNNATTTCTGCACGTAGAAGCAAAAGGC

Variants of: B1
Experiment: fraction ligated after 30 min (ligated reads / total reads); higher = more ligase activity
Settings: with F1*subA RNA substrate (template-directed ligation), 42 °C
Experimental: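 Chip-synthesised pool of minF1 ligase ribozyme variants (single and double substitutions, single to quadruple deletions, bulge and P2 designed variants) was transcribed with T7 and reacted as a pool with excess substrate F1*subA for 30 min at 42 C in 50 mM EPPS pH 8.5, 25 mM MgCl2. Ligated and unligated RNAs were separated by PAGE, barcoded by RT and deep sequenced; fraction ligated = ligated reads / total reads, relative activity = FL / FL of wild-type minF1 (0.76); sequencing FL correlated with PAGE (R2 = 0.98). Sequences are the DNA template of the ribozyme.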

| Variant | fraction ligated |
| --- | --- |
| ATCAATTGTGA A28G | 0.00238 |
| TCAGTGGAGTA G34T | 0.00892 |
| AAGAGGATTGA | 0.00146 |
| ATCATGGGTGA | 0.00433 |
| CAGATATGTGA | 0.00323 |
| ATGAGGATTGA | 0.00566 |
| TCAGATGATGA T23A | 0.00196 |
| ACAGGGAGTGA A29T | 0.00347 |
| ACAGGGATGTG | 0.00506 |
| ACAGGGATGTA | 0.00263 |
| TCAGAGGAGTT G34T T37G | 0.000958 |
| CGAAGGATGTG T23A A29T | 0.0123 |
| TCAAGGATTGA A29T | 0.00468 |
| ATCGTGTGTGA | 0.00325 |
| TAGAGGATTGA T23A A29T | 0.00233 |
| ATCGTGGTGTA | 0.00478 |
| ATCATGGTGTA | 0.00395 |
| ATCAAGATGTA A28G | 0.00207 |
| TCAGATGAGTG T23A | 0.00683 |
| TCAGTGATGTG | 0.00561 |
| TCAGTGATGTA | 0.000465 |
| ATAGAGGATGA | 0.00219 |
| ATGATGGAGTG | 0.00409 |
| ATCAAAGGGTT A28G G34A T37G A40G | 0.000889 |

| Variant | fraction ligated |
| --- | --- |
| CAAAGATGTGA A28T A29G | 0.00352 |
| ACAGAGATGTA | 0.00268 |
| TCAGAGGATGA T23A | 0.00378 |
| TCGATGGGTGA T23A | 0.000539 |
| ATAGATGAGTG | 0.0071 |
| ATGAGGAGTGA | 0.00532 |
| TCGAGGTGTGA | 0.00212 |
| AAGATGGAGTA | 0.00181 |
| ACAGATGGGTT G34T T37G A40G | 0.00113 |
| ATAGTGGTTGA | 0.0023 |
| TCAGTGAGTGA | 0.00311 |
| TAGATGATTGA | 0.00145 |
| TCAGATGGGTA T23A G34A | 0.0017 |
| AGAAGATGTGA T23C A29G | 0.00313 |
| ACAAGGATGTA | 0.00108 |
| ACAAGGATGTG | 0.00585 |
| ACGATGGATGA | 0.0034 |
| TCAGTGGATGA | 0.00185 |
| CAAAGATGTGA A29T | 0.00371 |
| ATCAAAATGTG A28G | 0.00629 |
| ACGAGATGTGA A28T A29G | 0.00619 |
| CAAAGGAGTGA T23A A29T | 0.00224 |
| ATCAAGGTGTG | 0.00687 |
| ATCAAGGTGTA | 0.00438 |

| Variant | fraction ligated |
| --- | --- |
| ATCAATGAGTG A28G G34T | 0.00581 |
| TCAATGTGTGA | 0.00236 |
| TAGATGATTGA T23A | 0.00257 |
| TAGATGGAGTA T23A | 0.000612 |
| TCAGTGGAGTT T23A G34T T37G A40G | 0.000501 |
| ATCAATGGGTG | 0.00492 |
| ACAGTGGAGTG G34T | 0.0352 |
| ACAGATGTTGA | 0.00338 |
| ATCGATGGGTT G34A T37G A40G | 0.00135 |
| TCGATGATGTA T23A | 0.00263 |
| ATAAGGAGTGA | 0.000696 |
| ATAGATGATGA | 0.00363 |
| AGAAGATGTGA T23A A28T A29G | 0.00449 |
| ACAGTGTGTGA | 0.00188 |
| ATAGATGGTGA | 0.00397 |
| CAGAGGATTGA A29T | 0.0052 |
| TAGAGGAGTGA A29T | 0.00156 |
| AGAAGGATGTA T23C A29T | 0.00442 |
| TCGAGGATGTG T23A | 0.00538 |
| ATCAAATGGTT A28G G35T T37G | 0.00103 |
| TCAGGATGTGA A29T | 0.00155 |
| ACAATGGAGTT G34T T37G A40G | 0.00101 |
| TCGATGGAGTT G34T T37G A40G | 0.000433 |
| ATCAAATGGGT A28G G35T T37G A40T | 0.00169 |

| Variant | fraction ligated |
| --- | --- |
| ATCGATATGTG | 0.00524 |
| ATCGATGGGTT G34A G35T T37G A40G | 0.000298 |
| CAGATGGTGTG T23A | 0.00474 |
| TCAGAGGTGTG T23A | 0.00531 |
| ATCAAAGGGTG A28G | 0.0051 |
| ATCAAGGAGTA | 0.00502 |
| ATCAAAGATGA A28G | 0.00211 |
| ATCAATGGGTT A28G G34A G35T T37G | 0.00268 |
| TCGAGGAGTGA T23A | 0.00431 |
| TAGATGTGTGA | 0.00395 |
| TCGATGGAGTG G34T | 0.253 |
| TCAATGGTTGA T23A | 0.00285 |
| ATGATGGTGTA | 0.00485 |
| ATCAAGGTTGA | 0.00224 |
| CAGATGTGTGA | 0.00342 |
| ATCAGGAGTGA A28G | 0.0026 |
| TCAGATGGGTT T23A G34T T37G | 0.00101 |
| AAAAGGATGTA A29T | 0.00276 |
| TAAAGGAGTGA A29T | 0.00185 |
| TCAGTATGTGA | 0.00458 |
| ATAATGGAGTT G34T T37G | 0.00161 |
| ATCGGATGTGA A29T | 0.00285 |
| TCAATGATGTG | 0.0049 |
| ATCGTGGATGA | 0.00177 |

| Variant | fraction ligated |
| --- | --- |
| TCAGATGTTGA | 0.0015 |
| AAAAGATGTGA A28T A29G | 0.00466 |
| TCGATATGTGA | 0.00214 |
| ATCAATGAGTA G34T | 0.0033 |
| TCGATGGTGTA T23A | 0.00392 |
| CAGATATGTGA T23A | 0.00265 |
| CAGATGATGTG T23A | 0.00584 |
| AAAAGATGTGA T23A A28T A29G | 0.00631 |
| TCAGATGAGTG G34T | 0.00362 |
| CAGAGGATTGA T23A A29T | 0.00274 |
| ACAGATGGGTA | 0.00187 |
| ATCAAATGGTT A28G G34A G35T T37G | 0.00118 |
| ATCAAGGATGA | 0.000429 |
| TCGAGATGTGA | 0.0048 |
| ATCGGGATTGA A29T | 0.00409 |
| CAAAGATGTGA T23A A29G | 0.00234 |
| TAAAGATGTGA T23A A29G | 0.00271 |
| AAGATGATTGA | 0.0028 |
| ACGAGGATGTA A29T | 0.00647 |
| CAAAGGAGTGA A29T | 0.00216 |
| TCAAGGAGTGA | 0.000917 |
| AGAAGGTGTGA A29T | 0.0036 |
| TCAGGATGTGA A28T A29G | 0.00322 |
| TCGATGGGTGA | 0.00376 |

| Variant | fraction ligated |
| --- | --- |
| ATAGAGGAGTG | 0.00449 |
| TGAAGGTGTGA T23A A29T | 0.00263 |
| TCAGGGTGTGA T23A A29T | 0.00472 |
| ATAGGATGTGA | 0.00396 |
| ACAAGGATTGA | 0.00332 |
| CAGAGGTGTGA T23A A29T | 0.00102 |
| TCAGGGATGTA T23A A29T | 0.00445 |
| ATCAATGGTGA A28G | 0.00319 |
| TCAGTGGATGA T23A | 0.00222 |
| ACAGATGGGTT G34T T37G | 0.0016 |
| ACAAGGTGTGA | 0.00367 |
| ATCGTGGGTGA | 0.00142 |
| AGAAGGATGTA T23A A29T | 0.00442 |
| ATCATGGATGA A28G | 0.00362 |
| TCAATGATGTG T23A | 0.00503 |
| ATCAATGGGTG A28G G34T | 0.00456 |
| ATCAATGGGTG A28G G34A | 0.00717 |
| ATCGAGATTGA | 0.00372 |
| ACAAGGATGTG A29T | 0.00671 |
| ATCGATGGGTT G34T T37G | 0.00156 |
| TCAGGGAGTGA A29T | 0.00242 |
| ACGAGGAGTGA | 0.000641 |
| ATCATATGTGA A28G | 0.00411 |
| TAGAGGAGTGA T23A | 0.0026 |

| Variant | fraction ligated |
| --- | --- |
| TCAGATGTGTA | 0.000796 |
| TCAGAGATTGA T23A | 0.00203 |
| ATCAAATGGTT A28G G35A T37G | 0.00104 |
| TCGATGTGTGA T23A | 0.00234 |
| AGAAGGTGTGA T23C A29T | 0.00383 |
| ACAGATAGTGA | 0.00391 |
| ATCGAGGGTGA | 0.00167 |
| ATCAGGTGTGA A28G | 0.00256 |
| ATCAAGGTTGA A28G | 0.00202 |
| ATCAAGATGTG | 0.0129 |
| ATCAATGAGTA | 0.00236 |
| TCGATGGAGTT T23A G34T T37G | 0.001 |
| ATCGAGGTGTG | 0.00858 |
| ATCAAAGAGTG A28G | 0.00384 |
| ATAGAGGAGTT G34T T37G A40G | 0.00121 |
| AGAAGGAGTGA T23A A29T | 0.00185 |
| TCGAGGATGTA A29T | 0.00472 |
| CAGATGGTGTA | 0.00171 |
| ATAGAGGAGTA G34T | 0.00281 |
| ACGAGGATGTG | 0.00917 |
| TCAGTGGGTGA T23A | 0.0036 |
| ACAATGGAGTG G34T | 0.0274 |
| TCAAGATGTGA A29G | 0.0031 |

From the supplement of paper PMC6755084
